Measurements taken from PMC5673899, “Structural basis for receptor recognition of pollen tube attraction peptides” (Nature Communications, 2017).
Substitutions are numbered along the chain they refer to. Names and notes keep the numbering of the source. “Also recorded” adds a separate entry of the source.

Key:
[1] = biological target: T1, AtPRK6^LRR, extracellular LRR domain of AtPRK6 (residues 1-262) (Arabidopsis thaliana, UniProt Q3E991 27-262); assay: ITC
T1 chain: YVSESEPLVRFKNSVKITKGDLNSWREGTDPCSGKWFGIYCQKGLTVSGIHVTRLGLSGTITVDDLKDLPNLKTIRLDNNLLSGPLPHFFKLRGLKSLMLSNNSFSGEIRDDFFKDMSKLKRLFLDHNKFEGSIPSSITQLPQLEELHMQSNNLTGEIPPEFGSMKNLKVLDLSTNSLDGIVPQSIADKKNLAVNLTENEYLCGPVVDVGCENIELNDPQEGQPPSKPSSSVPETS

[2] = biological target: T2, AtPRK6^LRR, extracellular LRR domain of AtPRK6 (residues 1-262) (Arabidopsis thaliana, UniProt Q3E991 27-262); assay: ITC; ITC200, 25 °C, 200 mM HEPES pH 7.0, 100 mM NaCl; about 0.9 mM AtLURE1.2 injected (20 x 2 μl) into 0.08 mM LRR protein in the cell; conditions: both partners purified
T2 construct: signal peptide in the construct; leucine-rich repeat receptor kinase PRK6 of Arabidopsis thaliana, extracellular LRR domain, residues 1-262; Monomer by gel filtration; likely glycosylated (apparent 34 kDa); source: High Five insect cells (baculovirus), secreted, purified (Ni-NTA, size-exclusion chromatography); also co-expressed with AtLURE1 peptides; not shown: His6, C-terminal, kept
T2 sequence (looked up): T1 chain

[3] = biological target: T3, AtPRK6^LRR N239A (residues 1-262) (Arabidopsis thaliana, UniProt Q3E991 27-262, N239A); assay: pull-down; His-tagged LRR protein mixed with excess AtLURE1.2 peptide and held on Ni-NTA resin, on ice 30 min; washed five times with 25 mM Tris pH 8.0, 150 mM NaCl, 15 mM imidazole; eluted with 250 mM imidazole; SDS-PAGE, Coomassie; conditions: both partners purified
T3 construct: signal peptide in the construct; PRK6 of Arabidopsis thaliana, extracellular LRR domain, residues 1-262, with N239A; also called N239A mutant of PRK6; source: High Five insect cells (baculovirus), secreted, purified as AtPRK6^LRR; not shown: His6, C-terminal, kept
T3 sequence (looked up): T1 chain with N213A

[4] = test system: semi-in-vivo pollen tubes (wild type); assay: AtLURE-responsive wavy assay, wild-type pollen tubes; type: cell-based, Arabidopsis; conditions: 250 nM peptide in solid pollen germination medium
Description: Attraction activities of mutant AtLURE1.2 peptides were examined for semi-in-vivo pollen tubes growing through cut, pollinated pistils by gelatin-beads assay and wavy assay, [20]. For the gelatin-beads assay, pollen tubes were grown on solid pollen germination medium poured into a mold made with 1-mm thick silicone rubber and cover glasses. After hand-pollination, the topside cover glass was removed and the medium was covered with hydrated silicone oil (KF-96–100CS; Shin-Etsu). Attraction of pollen tubes toward the peptide was evaluated using AtLURE1 peptide containing gelatine beads under an inverted microscope (IX71, Olympus) equipped with a micro-manipulator (Narishige). For the AtLURE1-responsive wavy assay, the purified AtLURE1.2 peptide was added to solid pollen germination medium, which was melted at 70 °C and then cooled to a certain degree. The mixture was mixed by vortexing and poured into the mold. Pollen tubes of each genotype were grown through cut styles, as mentioned above. Each peptide (25 μM in 10 mM Bis-Tris (pH 6.0) and 100 mM NaCl) was diluted to 250 nM by cultivation medium in both assays. […]
pollen tubes. Fluorescence is from mRuby2 fused to the C-terminal of PRK6 receptors, showing that all of mutant PRK6 receptors localize normally to the plasma membrane of the pollen tube tip. […]

[5] = test system: semi-in-vivo pollen tubes; assay: Gelatin-beads assay, wild-type semi-in-vivo pollen tubes; type: cell-based, Arabidopsis; conditions: for pollen tube attraction activity (in words): Tukey−Kramer test, P < 0.05
Description: Attraction activities of mutant AtLURE1.2 peptides were examined for semi-in-vivo pollen tubes growing through cut, pollinated pistils by gelatin-beads assay and wavy assay, [20]. For the gelatin-beads assay, pollen tubes were grown on solid pollen germination medium poured into a mold made with 1-mm thick silicone rubber and cover glasses. After hand-pollination, the topside cover glass was removed and the medium was covered with hydrated silicone oil (KF-96–100CS; Shin-Etsu). Attraction of pollen tubes toward the peptide was evaluated using AtLURE1 peptide containing gelatine beads under an inverted microscope (IX71, Olympus) equipped with a micro-manipulator (Narishige). For the AtLURE1-responsive wavy assay, the purified AtLURE1.2 peptide was added to solid pollen germination medium, which was melted at 70 °C and then cooled to a certain degree. The mixture was mixed by vortexing and poured into the mold. Pollen tubes of each genotype were grown through cut styles, as mentioned above. Each peptide (25 μM in 10 mM Bis-Tris (pH 6.0) and 100 mM NaCl) was diluted to 250 nM by cultivation medium in both assays. To examine reactivity of PRK6 mutants to AtLURE1.2, constructs for PRK6 mutants, D234A, N239A, and ΔN239I240, were generated by site-directed mutagenesis from a wild-type PRK6 vector, pPZP221-pPRK6::PRK6-mRuby2 (ref. [20]). Wild-type and mutant PRK6 constructs were introduced into prk6–1 plant. After transformants were selected by the same criteria as previously, beads assay and wavy assay were performed in several T1 lines and single T2 line, respectively, for each genotype using 250 nM wild-type AtLURE1.2 peptide.

[6] = test system: AtPRK6^LRR; assay: In vitro pull-down with AtPRK6^LRR; type: binding, Arabidopsis thaliana
Excerpt: The genes of AtPRK3 ^LRR (residues 1–241), AtPRK4 ^LRR (residues 1–277), AtPRK5 ^LRR (residues 1–279), AtPRK6 ^LRR (residues 1–262), MIK1 ^LRR (residues 1–633), MIK2 ^LRR (residues 1–707) were amplified from Arabidopsis cDNA library by PCR and cloned into pFastBac-1 vector with a C-terminal 6 × His-tag. Their identities were confirmed by sequencing. The mature form of AtLURE1.1 (residues 20–94), AtLURE1.2 (residues 20–90), AtLURE1.3 (residues 21–91), and AtLURE1.4 (residues 20–90) were cloned into pFastBac-1 vector, with a modified N-terminal hemolin signal peptide and 6 × His-SUMO tag. Point mutation constructs were generated by QuickChange Site-Directed Mutagenesis Kit (Strategene). All the proteins were expressed using the Bac-to-Bac baculovirus expression system (Invitrogen) in High Five cells at 22 °C. One liter of High Five cells (2.0 × 10^6 cells mL^−1) cultured in the medium from Expression Systems was infected with 25 ml recombinant baculovirus and the media was collected after 72 h of infection. Secreted LRR proteins were purified using Ni-NTA (Novagen) and size-exclusion chromatography (Hiload 200, GE Healthcare) in buffer containing 10 mM Bis-Tris pH 6.0 and 100 mM NaCl. The His-SUMO tag of the AtLURE proteins was removed by Prescission Protease at 4 °C overnight in buffer containing 25 mM Tris pH 8.0 and 150 mM NaCl. All AtLURE proteins were further cleaned by size-exclusion chromatography (Hiload 200, GE Healthcare). For co-expression of AtPRK6^LRR and AtLURE1, one liter of High Five cells were co-infected with 20 and 30 ml recombinant baculovirus of AtPRK6^LRR and AtLURE1, respectively. Secreted AtPRK6^LRR-AtLURE1 complexes were processed with Prescission Protease digestion and then purified as described above. Expression and purification procedures of all the mutants were essentially the same as those of AtPRK6^LRR and AtLURE1.2.
The purified His-tagged ectodomains of AtPRK proteins and MIK1, 2 were used to pull-down the AtLURE1.2 peptide. […] All the eluted samples were analyzed by SDS-PAGE and visualized by Coomassie blue staining. […]

[7] = biological target: T2, AtPRK6^LRR, extracellular LRR domain of …; assay: pull-down; His-tagged LRR protein mixed with excess AtLURE1.2 peptide and held on Ni-NTA resin, on ice 30 min; washed five times with 25 mM Tris pH 8.0, 150 mM NaCl, 15 mM imidazole; eluted with 250 mM imidazole; SDS-PAGE, Coomassie; conditions: both partners purified
[8] = gelatin beads containing 250 nM peptide

B1: AtLURE1.2, mature form (residues 20-90) (peptide, UniProt Q4VP08 20-90, looked up)
chain: TLINGSSDEERTYSFSPTTSPFDPRSLNQELKIGRIGYCFDCARACMRRGKYIRTCSFERKLCRCSISDIK
notes: AtLURE1.2, defensin-like cysteine-rich peptide of Arabidopsis thaliana, mature form, residues 20-90; Cloned in pFastBac-1 behind a modified N-terminal hemolin signal peptide and a 6xHis-SUMO tag; Likely glycosylated (apparent 14 kDa); also called AtLURE1.2 peptide; source: also co-expressed with AtPRK6^LRR for the crystallised complex; not shown: His6, N-terminal, cleaved; SUMO, N-terminal, …
- Ka [1]: 321000 M⁻¹
- Kd [2]: ~3.1 µM
- binding result [3]: binds

B2: R83A: R83A AtLURE1.2 peptide, Arg83 substituted with alanine (protein)
chain: B1 chain with R64A
modifications: left off: His6, N-terminal, cleaved | SUMO, N-terminal, cleaved
notes: R83A AtLURE1.2 peptide, Arg83 substituted with alanine
- wavy pollen tube response [4]: decreased; also recorded: greatly reduced the numbers of wavy pollen tubes
- pollen tube attraction activity (in words) [5, 8]: significantly lower than those in other four peptides
- attraction frequency of pollen tubes ([5]; gelatin beads containing 250 nM peptide, mean ± SD, 9–16 pollen tubes per assay, 3−5 assays): 56 ± 11%
- pollen tubes not attracted to the bead ([5]; gelatin beads, 250 nM peptide): more than 44%
- interaction in pull-down assay ([6]; Ni-NTA, excess AtLURE1.2, on ice 30 min, washed five times, 25 mM Tris pH 8.0, 150 mM NaCl, SDS-PAGE, Coomassie blue, repeated at least three times): compromised but not abolished; also recorded: compromised
- interaction in pull-down assay, less harsh washing ([6]; once or twice washing, peer review file): much less than the wild type AtLURE1.2

B3: R73A: R73A mutant AtLURE1.2 peptide (protein, UniProt Q4VP08 20-90, looked up, variant R73A)
Protein LURE 1.2: B1 chain with R54A
- pollen tube attraction activity (in words) [5, 8]: little effect

B4: R68A: R68A mutant AtLURE1.2 peptide (protein, UniProt Q4VP08 20-90, looked up, variant R68A)
Protein LURE 1.2: B1 chain with R49A
- pollen tube attraction activity (in words) [5, 8]: little effect

B5: R79A: R79A mutant AtLURE1.2 peptide (protein, UniProt Q4VP08 20-90, looked up, variant R79A)
Protein LURE 1.2: B1 chain with R60A
- pollen tube attraction activity (in words) [5, 8]: little effect

B6: AtLURE1.2 R83A (residues 20-90) (peptide, UniProt Q4VP08 20-90, looked up)
chain: B1 chain with R64A
notes: AtLURE1.2 of Arabidopsis thaliana, mature form, residues 20-90, with R83A; also called R83A AtLURE1.2; mutant peptide R83A; source: High Five insect cells (baculovirus), secreted, purified as AtLURE1.2; not shown: His6, N-terminal, cleaved; SUMO, N-terminal, cleaved
- binding result [7]: binds
